± gives the standard deviation of the averaged measurements.
B1: library; a variant is named by its letters at N, in order (parent)
chain: GCUGUCACCGGUGCUUGGUACGUUAUAUUCAGCCGGUCUGAUGAGUCUNNNNNNAGACGAAACAGC

Assays:
[1] = variants of: B1; test: normalized RNA/DNA level without ligand (relative to sTRSVctl = 100) (log10 (% of sTRSVctl)); HEK293T overexpressing SLC46A1; higher = less ribozyme self-cleavage, higher mRNA level; settings: without (6R,S)-folinic acid; ligand present: no
In short: (§1)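 Library plasmids encoding reporter-linked ribozyme switches (mCherry, or eGFP for some folinic acid experiments) were transfected into HEK293T at 4 µg per 6-well well. Ligand, when used, was added 1 h before transfection. Total RNA was extracted with EDTA 72 h later, then reverse-transcribed, amplified, barcoded and sequenced. RNA level was RNA reads over DNA reads, divided by a spiked-in non-cleaving control (or the top 25 sequences), ×100, log10; only sequences with ≥100 DNA reads were kept.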

[2] = variants of: B1; test: normalized RNA/DNA level with ligand (relative to sTRSVctl = 100) (log10 (% of sTRSVctl)); HEK293T overexpressing SLC46A1; ligand concentration (+) RNA-Seq: 6 mM; higher = less ribozyme self-cleavage, higher mRNA level; settings: with (6R,S)-folinic acid; ligand present: yes
In short: as §1

Variant | normalized RNA/DNA level without ligand (log10) [1] | normalized RNA/DNA level with ligand (log10) [2]
CCCAUU | 2.09 ± 0.024 | 2.079 ± 0.01
CCCAUA | 2.02 ± 0.036 | 2.03 ± 0.05
CCCAUG | 2.044 ± 0.0075 | 2 ± 0.033
GCCGGC | 2.049 ± 0.0034 | 1.98 ± 0.051
GCCGGU | 2.067 ± 0.01 | 2.03 ± 0.034
GCCGGG | 2.086 ± 0.015 | 2.045 ± 0.003
GCCGGA | 2.07 ± 0.036 | 2.02 ± 0.031
CCAUAG | 1.922 ± 0.0071 | 1.99 ± 0.02
CCAUAU | 1.961 ± 0.0029 | 1.99 ± 0.032
CCAUAC | 1.991 ± 0.012 | 1.96 ± 0.059
CCAUAA | 1.98 ± 0.023 | 1.97 ± 0.027
CCCGCG | 2.09 ± 0.023 | 2.01 ± 0.034
CCCGCU | 2.109 ± 0.014 | 2.08 ± 0.068
CCCGCA | 2.06 ± 0.035 | 2.071 ± 0.02
CCCGCC | 2.0796 ± 0.00065 | 2.05 ± 0.03
CCAGCU | 2.087 ± 0.018 | 2.036 ± 0.013
UCCCCC | 2.06 ± 0.033 | 2.063 ± 0.012
UCCCCG | 1.997 ± 0.008 | 2.041 ± 0.019
UCCCCU | 2.06 ± 0.025 | 2.04 ± 0.049
UCCCCA | 2.052 ± 0.0085 | 2.04 ± 0.033
UCCAUG | 1.857 ± 0.005 | 1.97 ± 0.053
UCCAUC | 2.036 ± 0.018 | 2.01 ± 0.051
UCCAUU | 2.033 ± 0.011 | 2.006 ± 0.006

Variant | normalized RNA/DNA level without ligand (log10) [1] | normalized RNA/DNA level with ligand (log10) [2]
UCCAUA | 1.972 ± 0.0018 | 1.98 ± 0.042
ACAUGA | 1.979 ± 0.01 | 2.034 ± 0.019
ACAUGU | 2.022 ± 0.0056 | 2.02 ± 0.023
ACAUGC | 2.014 ± 0.014 | 2.04 ± 0.07
GCCCAU | 2.014 ± 0.0026 | 2.02 ± 0.061
GCCCAG | 2 ± 0.028 | 2 ± 0.059
GCCCAA | 2.03 ± 0.014 | 2.02 ± 0.042
GCCCAC | 2.02 ± 0.011 | 2.01 ± 0.034
GCCCGU | 2.0126 ± 0.0014 | 2.007 ± 0.0028
GCCCGA | 2.0343 ± 0.0013 | 2.04 ± 0.041
GCCCGG | 2.089 ± 0.005 | 2.02 ± 0.035
GCCCGC | 2.0838 ± 0.0006 | 2.08 ± 0.03
ACCCUG | 2.006 ± 0.013 | 2.032 ± 0.013
ACCCUC | 2.03 ± 0.031 | 2.02 ± 0.032
ACCCUU | 2.02 ± 0.027 | 2.03 ± 0.044
ACCCUA | 2.018 ± 0.015 | 2.03 ± 0.022
GCCCCU | 2.0548 ± 0.00021 | 2.024 ± 0.011
GCCCCC | 2.03 ± 0.032 | 2.04 ± 0.048
GCCCCG | 2.041 ± 0.012 | 1.99 ± 0.034
GCCCCA | 2.031 ± 0.0049 | 2.01 ± 0.042
CCAUGC | 2.054 ± 0.015 | 2.05 ± 0.04
CCAUGA | 1.981 ± 0.0035 | 2 ± 0.059
CCAUGG | 1.986 ± 0.013 | 2.016 ± 0.015

Variant | normalized RNA/DNA level without ligand (log10) [1] | normalized RNA/DNA level with ligand (log10) [2]
ACCACU | 2.029 ± 0.0042 | 1.99 ± 0.066
ACCACG | 2.023 ± 0.0076 | 2.061 ± 0.003
ACCACA | 2.021 ± 0.0096 | 2.01 ± 0.021
ACCACC | 2.087 ± 0.0062 | 2.06 ± 0.04
GCAGGC | 1.882 ± 0.0089 | 1.86 ± 0.042
GCAGGU | 1.934 ± 0.012 | 1.99 ± 0.03
GCCCUG | 2.05 ± 0.023 | 2.04 ± 0.039
GCCCUU | 2.021 ± 0.0059 | 2.01 ± 0.044
GCCCUC | 2.047 ± 0.015 | 2.03 ± 0.065
GCCCUA | 2.034 ± 0.015 | 2.05 ± 0.032
UCCAAC | 2.067 ± 0.0087 | 2.06 ± 0.03
UCCAAU | 1.953 ± 0.0052 | 1.96 ± 0.028
UCCAAA | 1.982 ± 0.0034 | 1.986 ± 0.015
ACCAGA | 2.019 ± 0.013 | 2.05 ± 0.033
ACCAGG | 1.9569 ± 0.0006 | 2 ± 0.024
ACCAGC | 2.071 ± 0.0016 | 2.06 ± 0.038
ACCAGU | 2.005 ± 0.0042 | 2.02 ± 0.013
UCAUAG | 1.829 ± 0.0068 | 1.984 ± 0.015
UCAUAC | 2.029 ± 0.0064 | 1.988 ± 0.019
UCAUAU | 1.952 ± 0.0097 | 1.98 ± 0.03
GCCGUA | 2.002 ± 0.0022 | 2.02 ± 0.05
ACAUAG | 1.935 ± 0.013 | 2.02 ± 0.021
ACAUAU | 1.94 ± 0.037 | 2.01 ± 0.022

Variant | normalized RNA/DNA level without ligand (log10) [1] | normalized RNA/DNA level with ligand (log10) [2]
CCCAAU | 2.023 ± 0.015 | 2.03 ± 0.028
CCCAAG | 1.935 ± 0.014 | 1.99 ± 0.031
CCCAAA | 2.02 ± 0.025 | 2.026 ± 0.0099
CCCAAC | 2.042 ± 0.017 | 2.019 ± 0.017
ACCCCA | 2.02 ± 0.011 | 2 ± 0.05
ACCCCU | 1.997 ± 0.0056 | 1.98 ± 0.073
ACCCCC | 2.04 ± 0.016 | 2.002 ± 0.015
ACCCCG | 1.998 ± 0.0083 | 1.99 ± 0.073
UCCACC | 2.018 ± 0.017 | 2.03 ± 0.022
UCCACU | 2.041 ± 0.0029 | 2.052 ± 0.014
UCCACA | 1.985 ± 0.0093 | 2 ± 0.046
UCCCGU | 2.041 ± 0.013 | 2.04 ± 0.044
UCCCGA | 2.033 ± 0.008 | 2.07 ± 0.033
UCCCGC | 2.013 ± 0.015 | 1.99 ± 0.053
UCCCGG | 2.05 ± 0.018 | 2.05 ± 0.059
UCAUCA | 2.05 ± 0.039 | 2.03 ± 0.044
UCAUCG | 1.997 ± 0.0043 | 2.01 ± 0.04
UCAUCU | 2.064 ± 0.0079 | 2.055 ± 0.0055
UCAUCC | 2.07 ± 0.051 | 2.05 ± 0.041
GCCAGU | 2.056 ± 0.0089 | 2.049 ± 0.015
UCCCUU | 2.03 ± 0.026 | 2.006 ± 0.0086
UCCCUC | 2.07 ± 0.041 | 2.053 ± 0.0051
UCCCUA | 2.007 ± 0.0055 | 2 ± 0.024

Variant | normalized RNA/DNA level without ligand (log10) [1] | normalized RNA/DNA level with ligand (log10) [2]
UCCCUG | 1.919 ± 0.013 | 2.03 ± 0.039
CCCCAC | 2.04 ± 0.022 | 2.05 ± 0.037
CCCCAG | 2.004 ± 0.019 | 2.038 ± 0.012
CCCCAU | 2.031 ± 0.01 | 2.03 ± 0.045
CCCCAA | 2.0237 ± 0.0015 | 1.999 ± 0.0078
ACCCGU | 2.0423 ± 0.0012 | 2.02 ± 0.0044
ACCCGG | 2.01 ± 0.022 | 2.04 ± 0.041
ACCCGC | 2.038 ± 0.02 | 2.03 ± 0.041
CCCGUA | 2.062 ± 0.016 | 2.07 ± 0.055
CCCAGU | 2.05 ± 0.038 | 2.034 ± 0.02
CCCAGG | 2.042 ± 0.006 | 2.01 ± 0.025
CCCAGC | 2.06 ± 0.035 | 2.06 ± 0.068
CCCAGA | 2.0467 ± 0.00053 | 2.029 ± 0.012
ACAGCU | 2.06 ± 0.024 | 2.059 ± 0.004
GCCAUA | 2.016 ± 0.0031 | 2.02 ± 0.052
GCCAUC | 2.02 ± 0.031 | 2 ± 0.032
GCCAUU | 2.041 ± 0.0051 | 2.008 ± 0.015
GCCAAU | 2.001 ± 0.0032 | 2 ± 0.053
GCCAAG | 2.0227 ± 0.0017 | 2.04 ± 0.038
GCCAAC | 2.033 ± 0.02 | 2.055 ± 0.011
CCCACU | 2.103 ± 0.016 | 2.08 ± 0.062
CCCACC | 2.022 ± 0.0044 | 1.99 ± 0.021
CCCACA | 2.05 ± 0.027 | 2 ± 0.034
